Results reported in publication PMC6791878, “Evaluation of integrin αvβ6 cystine knot PET tracers to detect cancer and idiopathic pulmonary fibrosis” (Nature Communications, 2019).
Where “and” joins values, the source holds several entries; their conditions need not be identical. Equal entries are not always repeated. Where two headings read alike, the source gives them in different places. Where a SMILES comes first, the peptide text is derived from it. Bridges are numbered along the chain shown (N, C = ends). The star is where a group is joined. DOTA = O=C(O)CN1CCN(CC(=O)O)CCN(CC(=O)*)CCN(CC(=O)O)CC1

Assays:
[1] = tested on: αvβ6 expressing BxPC3 pancreatic cancer xenografts; conditions: for Tumor: αvβ6 (+)
Description: (§1) Female athymic nude mice, 4–6 weeks old (Charles River), were subcutaneously shoulder-injected with 10^7 cells suspended in 100 µL PBS. Mice were used for imaging and biodistribution studies when xenografted tumors grew to a diameter of ~1 cm.
(§2) Tumor-bearing Nu/Nu female mice (n = 3 for each probe) were anesthetized using 2% isoflurane in oxygen and injected with ~100 µCi (~0.15 nmol) of the tracers described above via the tail vein. Five-minute static PET scans were acquired on an Inveon PET-CT or Inveon D-PET scanner (Siemens Healthcare, Malvern PA). Images were reconstructed by a two-dimensional ordered expectation maximum subset algorithm and calibrated as described below. ROIs were drawn over the tumor on decay-corrected whole-body images using Inveon Research Workplace (IRW) software (Siemens) or ASIPro VM software (Siemens). ROIs were converted to counts g^−1 min^−1, and %ID g^−1 values were determined assuming a tissue density of 1 g ml^−1.
(§3) Scanner activity calibration was performed to map between PET image units and units of radioactivity concentration. A preweighed 50-mL centrifuge tube was filled with distilled water and ^64CuCl2 (∼9.3 MBq [∼250 μCi] as determined by the dose calibrator) was used to simulate the whole body of the mouse. This tube was weighed, centered in the scanner aperture, and imaged for a 30-min static image, single bed position. From the sample weight and assuming a density of 1 g ml^−1, the activity concentration in the bottle was calculated in units of μCi mL^−1. Eight planes were acquired in the coronal section. A rectangular region of interest (ROI) (counts/pixel/s) was drawn on the middle of eight coronal planes.

in vivo = conditions: female, athymic nude (Nu/Nu), mouse, iv, total radioactivity; for tissue uptake at 2 h: microPET 2 hr; for tissue uptake at 4 h: microPET 4 hr; for tissue uptake at 24 h: microPET 24 hr; for tissue to tissue ratio at 1 h: tumor / muscle, 100 uCi
Description: as §1, §2, §3

[2] = PET, 1 h p.i., average ± SD, n = 3
[3] = microPET 2 hr, individual mice, listed as R01 DOTA Cu-64
[4] = microPET 4 hr, individual mice, listed as R01 DOTA Cu-64
[5] = kidney, PET, 1 h p.i., average ± SD, n = 3
[6] = kidney, microPET 1 hr, individual mice
[7] = liver, PET, 1 h p.i., average ± SD, n = 3
[8] = liver, microPET 1 hr, individual mice
[9] = muscle, PET, 1 h p.i., average ± SD, n = 3
[10] = muscle, microPET 1 hr, individual mice
[11] = tumor (BxPC3 xenograft), Tumor avb6(+), microPET 1 hr, individual mice, one line per mouse
[12] = tumor (BxPC3 xenograft), Tumor avb6(+), individual mice
[13] = tumor (BxPC3 xenograft, αvβ6 positive), Tumor, PET, 1 h p.i., αvβ6 (+), average ± SD, n = 3
[14] = microPET 4 hr, individual mice, listed as R01-MG DOTA Cu-64
[15] = microPET 1 hr, individual mice, listed as Ro1-MR DOTA Cu-64
[16] = microPET 4 hr, individual mice, listed as R01-MR DOTA Cu-64
[17] = microPET 24 hr, individual mice, listed as R01-MR DOTA Cu-64
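Also: shoulder subcutaneous xenografts near 1 cm, tracer given via tail vein, 5-min static PET, ROI activity on decay-corrected images converted to %ID/g with tissue density taken as 1 g/mL.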

SMILES | Tumor [1, 2] | Kidney [1, 2] | tissue uptake at 1 h (in vivo; [5]) | tissue uptake at 1 h (in vivo; [6]) | tissue uptake at 2 h (in vivo; kidney, individual mice) | tissue uptake at 4 h (in vivo; kidney, individual mice) | tissue uptake at 24 h (in vivo; kidney, individual mice) | tissue uptake at 1 h (in vivo; [8]) | tissue uptake at 2 h (in vivo; liver, individual mice) | tissue uptake at 4 h (in vivo; liver, individual mice) | tissue uptake at 24 h (in vivo; liver, individual mice) | tissue uptake at 1 h (in vivo; [9]) | tissue uptake at 1 h (in vivo; [10]) | tissue uptake at 2 h (in vivo; muscle, individual mice) | tissue uptake at 4 h (in vivo; muscle, individual mice) | tissue uptake at 24 h (in vivo; muscle, individual mice) | tissue uptake at 1 h (in vivo; [11]) | tissue uptake at 2 h (in vivo; [12]) | tissue uptake at 4 h (in vivo; [12]) | tissue uptake at 24 h (in vivo; [12]) | further results
CC[C@H](C)[C@@H]1NC(=O)[C@@H](NC(=O)CNC(=O)CN2CCN(CC(=O)O)CCN(CC(=O)O)CCN(CC(=O)O)CC2)CSSC[C@@H]2NC(=O)[C@H](C)NC(=O)CNC(=O)[C@@H]3CCCN3C(=O)[C@@H]3CSSC[C@@H](C(=O)NCC(N)=O)NC(=O)[C@H](Cc4ccc(O)cc4)NC(=O)CNC(=O)[C@H](CC(N)=O)NC(=O)CNC(=O)[C@H](CCCNC(=N)N)NC(=O)[C@H](CSSC[C@H](NC(=O)[C@H](CCCNC(=N)N)NC(=O)[C@H](Cc4ccccc4)NC(=O)[C@H](CC(C)C)NC(=O)[C@H](CC(C)C)NC(=O)[C@H]([C@@H](C)O)NC(=O)CNC(=O)[C@H](CC(C)C)NC(=O)[C@H](CC(=O)O)NC(=O)[C@H]([C@@H](C)O)NC(=O)[C@H](CCCNC(=N)N)NC(=O)[C@H](CCSC)NC(=O)[C@H](CC(N)=O)NC(=O)[C@H](CC(C)C)NC1=O)C(=O)N[C@@H](CCCNC(=N)N)C(=O)N[C@@H](CCCNC(=N)N)C(=O)N[C@@H](CC(=O)O)C(=O)N[C@@H](CO)C(=O)N[C@@H](CC(=O)O)C(=O)N3)NC(=O)[C@H]([C@@H](C)CC)NC2=O [[^64Cu]DOTA-R01, metal not drawn] | ~ 3 %ID g^−1 | ~ 30 %ID g^−1 | 30.3 ± 2.33 %ID/g | 32.9 %ID/g | 34.3 %ID/g | 29.8 %ID/g | 11.5 %ID/g | 2.34 %ID/g | 1.82 %ID/g | 1.79 %ID/g | 2.93 %ID/g | 0.433 ± 0.008 %ID/g | 0.427 %ID/g | 0.404 %ID/g | 0.399 %ID/g | 0.37 %ID/g | 2.99 %ID/g | 2.87 %ID/g | 2.39 %ID/g | 1.85 %ID/g | Muscle ([1]; microPET 1 hr, individual mice, listed as Ro1 DOTA Cu-64): 0.4306 %ID/g; Muscle [1, 3]: 0.407 %ID/g; Tumor avb6(+) [1, 3]: 2.883 %ID/g; Kidney [1, 4]: 29.77 %ID/g; Muscle [1, 4]: 0.4024 %ID/g; Muscle ([1]; microPET 24 hr, individual mice, listed as R01 DOTA Cu-64): 0.3725 %ID/g; tissue uptake at 1 h (in vivo; [7]): 2.26 ± 0.11 %ID/g; tissue uptake at 1 h (in vivo; [13]): 3.07 ± 0.17 %ID/g; tissue to tissue ratio at 1 h (in vivo): 7.09 ± 0.27
CC[C@H](C)[C@@H]1NC(=O)[C@@H](NC(=O)CNC(=O)CN2CCN(CC(=O)O)CCN(CC(=O)O)CCN(CC(=O)O)CC2)CSSC[C@@H]2NC(=O)[C@H](C)NC(=O)CNC(=O)[C@@H]3CCCN3C(=O)[C@@H]3CSSC[C@@H](C(=O)NCC(N)=O)NC(=O)[C@H](Cc4ccc(O)cc4)NC(=O)CNC(=O)[C@H](CC(N)=O)NC(=O)CNC(=O)[C@H](CCCNC(=N)N)NC(=O)[C@H](CSSC[C@H](NC(=O)[C@H](CCCNC(=N)N)NC(=O)[C@H](Cc4ccccc4)NC(=O)[C@H](CC(C)C)NC(=O)[C@H](CC(C)C)NC(=O)[C@H]([C@@H](C)O)NC(=O)CNC(=O)[C@H](CC(C)C)NC(=O)[C@H](CC(=O)O)NC(=O)[C@H]([C@@H](C)O)NC(=O)[C@H](CCCNC(=N)N)NC(=O)CNC(=O)[C@H](CC(N)=O)NC(=O)[C@H](CC(C)C)NC1=O)C(=O)N[C@@H](CCCNC(=N)N)C(=O)N[C@@H](CCCNC(=N)N)C(=O)N[C@@H](CC(=O)O)C(=O)N[C@@H](CO)C(=O)N[C@@H](CC(=O)O)C(=O)N3)NC(=O)[C@H]([C@@H](C)CC)NC2=O [[^64Cu]DOTA-R01-MG, metal not drawn] | ~ 3 %ID g^−1 | ~ 30 %ID g^−1 | 28.4 ± 2.61 %ID/g | 25.3 %ID/g | 26.9 %ID/g | 25.6 %ID/g | 10.8 %ID/g | 1.77 %ID/g | 2.38 %ID/g | 2.4 %ID/g | 3.39 %ID/g | 0.472 ± 0.003 %ID/g | 0.471 %ID/g | 0.398 %ID/g | 0.385 %ID/g | 0.394 %ID/g | 2.93 %ID/g | 2.27 %ID/g | 2.22 %ID/g | 2.52 %ID/g | Liver [1, 2]: 2.14 ± 0.38 % injected dose gram^−1; Tumor avb6(+) ([1]; microPET 1 hr, individual mice, one line per mouse, listed as Ro1-MG DOTA Cu-64): 2.952 %ID/g; Muscle ([1]; microPET 1 hr, individual mice, listed as Ro1-MG DOTA Cu-64): 0.4707 %ID/g; Muscle ([1]; microPET 2 hr, individual mice, listed as R01-MG DOTA Cu-64): 0.4023 %ID/g and 0.398 %ID/g; Liver [1, 14]: 2.382 %ID/g; Muscle [1, 14]: 0.3296 %ID/g; Muscle ([1]; microPET 24 hr, individual mice, listed as R01-MG DOTA Cu-64): 0.3985 %ID/g and 0.3942 %ID/g; tissue uptake at 1 h (in vivo; [13]): 2.74 ± 0.35 %ID/g; tissue to tissue ratio at 1 h (in vivo): 5.8 ± 0.72
CC[C@H](C)[C@@H]1NC(=O)[C@@H](NC(=O)CNC(=O)CN2CCN(CC(=O)O)CCN(CC(=O)O)CCN(CC(=O)O)CC2)CSSC[C@@H]2NC(=O)[C@H](C)NC(=O)CNC(=O)[C@@H]3CCCN3C(=O)[C@@H]3CSSC[C@@H](C(=O)NCC(N)=O)NC(=O)[C@H](Cc4ccc(O)cc4)NC(=O)CNC(=O)[C@H](CC(N)=O)NC(=O)CNC(=O)[C@H](CCCNC(=N)N)NC(=O)[C@H](CSSC[C@H](NC(=O)[C@H](CCCNC(=N)N)NC(=O)[C@H](Cc4ccccc4)NC(=O)[C@H](CC(C)C)NC(=O)[C@H](CC(C)C)NC(=O)[C@H]([C@@H](C)O)NC(=O)CNC(=O)[C@H](CC(C)C)NC(=O)[C@H](CC(=O)O)NC(=O)[C@H]([C@@H](C)O)NC(=O)[C@H](CCCNC(=N)N)NC(=O)[C@H](CCCNC(=N)N)NC(=O)[C@H](CC(N)=O)NC(=O)[C@H](CC(C)C)NC1=O)C(=O)N[C@@H](CCCNC(=N)N)C(=O)N[C@@H](CCCNC(=N)N)C(=O)N[C@@H](CC(=O)O)C(=O)N[C@@H](CO)C(=O)N[C@@H](CC(=O)O)C(=O)N3)NC(=O)[C@H]([C@@H](C)CC)NC2=O [[^64Cu]DOTA-R01-MR, metal not drawn] ({DOTA}-GCILNRRTDLGTLLFRCRRDSDCPGACICRGNGYCG-NH2; disulfide 2-27, 17-29, 23-35) | ~ 3 %ID g^−1 | ~ 90 %ID g^−1 | 90 ± 3.64 %ID/g | 94 %ID/g | 90.5 %ID/g | 82.3 %ID/g | 37.8 %ID/g | 4.66 %ID/g | 3.9 %ID/g | 3.44 %ID/g | 6.99 %ID/g | 0.536 ± 0.004 %ID/g | 0.533 %ID/g | 0.516 %ID/g | 0.467 %ID/g | 0.513 %ID/g | 3.27 %ID/g | 3.46 %ID/g | 2.55 %ID/g | 3.2 %ID/g | kidney uptake relative to the other two candidates ([1]; 1 h p.i.): ~ 3 fold; Tumor avb6(+) ([1]; microPET 1 hr, individual mice, one line per mouse, listed as Ro1-MR DOTA Cu-64): 3.249 %ID/g; Liver [1, 15]: 4.713 %ID/g; Muscle [1, 15]: 0.5407 %ID/g and 0.5349 %ID/g; Muscle ([1]; microPET 2 hr, individual mice, listed as R01-MR DOTA Cu-64): 0.5174 %ID/g; Kidney [1, 16]: 82.8 %ID/g; Liver [1, 16]: 4.22 %ID/g; Muscle [1, 16]: 0.4687 %ID/g; Kidney [1, 17]: 38.15 %ID/g; Muscle [1, 17]: 0.5142 %ID/g; Tumor avb6(+) [1, 17]: 3.535 %ID/g; tissue uptake at 1 h (in vivo; [7]): 4.63 ± 0.09 %ID/g; tissue uptake at 1 h (in vivo; [13]): 3.45 ± 0.34 %ID/g; tissue to tissue ratio at 1 h (in vivo): 6.43 ± 0.58
